{
  "source": "paper PMC11066007",
  "about": "“CORVET-specific subunit levels determine the balance between HOPS/CORVET endosomal tethering complexes” (Scientific Reports, 2024)",
  "key": {"VPS39-FLAG": {"target": "T1, VPS39-FLAG (human, UniProt Q96JC1 1-886)", "T1 construct": "VPS39, human, HOPS-specific subunit; DNA region encoding the full-length protein fused with a FLAG tag; also called HOPS-specific VPS39; not shown: FLAG, N-terminal, kept", "T1 sequence (looked up)": "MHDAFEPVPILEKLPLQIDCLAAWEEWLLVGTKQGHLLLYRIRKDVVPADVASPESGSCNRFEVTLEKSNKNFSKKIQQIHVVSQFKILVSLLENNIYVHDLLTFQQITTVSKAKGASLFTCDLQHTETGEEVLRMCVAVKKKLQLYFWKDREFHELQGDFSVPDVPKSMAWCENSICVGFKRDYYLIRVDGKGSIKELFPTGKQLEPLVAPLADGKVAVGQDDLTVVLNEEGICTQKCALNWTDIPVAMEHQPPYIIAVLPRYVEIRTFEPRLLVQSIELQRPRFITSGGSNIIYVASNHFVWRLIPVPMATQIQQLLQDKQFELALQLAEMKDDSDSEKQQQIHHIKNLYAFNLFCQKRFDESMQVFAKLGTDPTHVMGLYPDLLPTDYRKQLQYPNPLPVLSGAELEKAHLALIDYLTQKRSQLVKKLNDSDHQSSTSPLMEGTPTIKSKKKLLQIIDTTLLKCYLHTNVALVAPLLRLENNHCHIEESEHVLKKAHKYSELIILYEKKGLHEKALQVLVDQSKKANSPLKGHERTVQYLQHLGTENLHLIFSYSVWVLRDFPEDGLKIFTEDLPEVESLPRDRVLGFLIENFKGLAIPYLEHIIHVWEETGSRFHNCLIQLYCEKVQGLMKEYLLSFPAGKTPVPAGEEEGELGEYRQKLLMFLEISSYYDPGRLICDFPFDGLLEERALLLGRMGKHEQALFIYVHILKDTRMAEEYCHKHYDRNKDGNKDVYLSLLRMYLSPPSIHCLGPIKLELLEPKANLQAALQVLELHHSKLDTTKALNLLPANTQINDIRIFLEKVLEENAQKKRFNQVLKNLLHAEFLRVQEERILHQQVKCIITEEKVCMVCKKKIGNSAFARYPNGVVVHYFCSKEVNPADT", "test": "co-IP; anti-FLAG beads on total lysates of HEK293 cells stably transfected with a FLAG-tagged specific subunit, with or without transient overexpression of the counterpart subunit (control: pCMV); endogenous VPS11 and VPS18 detected by western blot, densitometry with ImageJ; lysis buffer 50 mM TRIS-HCl pH 7.5, 150 mM NaCl, 1% Triton X-100, 5 mM EDTA; 1.5 h at 4 °C", "details": "partners not purified"}, "VPS8-FLAG": {"target": "T2, VPS8-FLAG (human, UniProt Q8N3P4 1-1428)", "T2 construct": "VPS8, human, CORVET-specific subunit; DNA region encoding the full-length protein fused with a FLAG tag; also called CORVET-specific VPS8; source: HEK293, stably transfected (pCMV3), in lysate; not shown: FLAG, C-terminal, kept", "T2 sequence (looked up)": "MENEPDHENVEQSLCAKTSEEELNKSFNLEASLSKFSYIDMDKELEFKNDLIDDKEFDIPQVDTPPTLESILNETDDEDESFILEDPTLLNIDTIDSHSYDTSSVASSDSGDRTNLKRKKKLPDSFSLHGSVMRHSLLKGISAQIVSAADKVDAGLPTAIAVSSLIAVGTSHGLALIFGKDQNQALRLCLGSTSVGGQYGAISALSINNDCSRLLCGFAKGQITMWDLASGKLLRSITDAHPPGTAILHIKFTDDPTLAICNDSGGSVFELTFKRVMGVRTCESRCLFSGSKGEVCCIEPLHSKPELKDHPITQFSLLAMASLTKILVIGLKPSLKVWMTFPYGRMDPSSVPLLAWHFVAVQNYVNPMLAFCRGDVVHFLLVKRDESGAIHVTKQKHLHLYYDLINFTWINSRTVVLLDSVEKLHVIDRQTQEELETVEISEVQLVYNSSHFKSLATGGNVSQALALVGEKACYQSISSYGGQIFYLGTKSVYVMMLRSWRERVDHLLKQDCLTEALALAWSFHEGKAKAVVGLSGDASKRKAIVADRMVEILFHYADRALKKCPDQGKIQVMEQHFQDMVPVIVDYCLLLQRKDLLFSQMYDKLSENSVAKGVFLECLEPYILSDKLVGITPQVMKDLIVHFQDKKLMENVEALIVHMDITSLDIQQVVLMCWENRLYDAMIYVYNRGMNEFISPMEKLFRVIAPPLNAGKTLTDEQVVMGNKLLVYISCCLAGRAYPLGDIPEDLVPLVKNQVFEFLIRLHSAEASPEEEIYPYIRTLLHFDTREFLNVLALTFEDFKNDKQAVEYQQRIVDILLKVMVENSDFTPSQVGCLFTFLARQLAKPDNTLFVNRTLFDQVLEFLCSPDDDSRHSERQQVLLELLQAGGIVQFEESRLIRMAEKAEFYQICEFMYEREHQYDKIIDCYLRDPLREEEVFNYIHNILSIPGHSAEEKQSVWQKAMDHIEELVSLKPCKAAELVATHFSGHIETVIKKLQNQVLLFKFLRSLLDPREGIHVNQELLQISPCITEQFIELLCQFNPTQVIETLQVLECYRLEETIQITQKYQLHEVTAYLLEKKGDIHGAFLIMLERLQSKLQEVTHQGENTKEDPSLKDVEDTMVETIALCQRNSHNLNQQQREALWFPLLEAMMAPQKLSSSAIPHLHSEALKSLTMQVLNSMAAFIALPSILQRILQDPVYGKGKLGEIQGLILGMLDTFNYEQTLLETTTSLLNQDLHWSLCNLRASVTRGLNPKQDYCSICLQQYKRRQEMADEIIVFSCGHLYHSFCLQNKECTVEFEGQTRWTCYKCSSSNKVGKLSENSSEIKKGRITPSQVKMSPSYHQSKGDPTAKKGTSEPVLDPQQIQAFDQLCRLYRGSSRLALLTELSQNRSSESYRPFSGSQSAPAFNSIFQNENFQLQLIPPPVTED", "test": "co-IP; anti-FLAG beads on total lysates of HEK293 cells stably transfected with a FLAG-tagged specific subunit, with or without transient overexpression of the counterpart subunit (control: pCMV); endogenous VPS11 and VPS18 detected by western blot, densitometry with ImageJ; lysis buffer 50 mM TRIS-HCl pH 7.5, 150 mM NaCl, 1% Triton X-100, 5 mM EDTA; 1.5 h at 4 °C", "details": "partners not purified"}},
  "data": [
    {"binder": "VPS18 (natural protein, human (endogenous in HEK293), UniProt Q9P253 1-973, looked up, VPS18, shared class C core subunit of HOPS and CORVET, detected by anti-VPS18 western blot in anti-FLAG precipitates; also called core subunit VPS18; source: endogenous, HEK293 lysate) MASILDEYENSLSRSAVLQPGCPSVGIPHSGYVNAQLEKEVPIFTKQRIDFTPSERITSLVVSSNQLCMSLGKDTLLRIDLGKANEPNHVELGRKDDAKVHKMFLDHTGSHLLIALSSTEVLYVNRNGQKVRPLARWKGQLVESVGWNKALGTESSTGPILVGTAQGHIFEAELSASEGGLFGPAPDLYFRPLYVLNEEGGPAPVCSLEAERGPDGRSFVIATTRQRLFQFIGRAAEGAEAQGFSGLFAAYTDHPPPFREFPSNLGYSELAFYTPKLRSAPRAFAWMMGDGVLYGALDCGRPDSLLSEERVWEYPEGVGPGASPPLAIVLTQFHFLLLLADRVEAVCTLTGQVVLRDHFLEKFGPLKHMVKDSSTGQLWAYTERAVFRYHVQREARDVWRTYLDMNRFDLAKEYCRERPDCLDTVLAREADFCFRQRRYLESARCYALTQSYFEEIALKFLEARQEEALAEFLQRKLASLKPAERTQATLLTTWLTELYLSRLGALQGDPEALTLYRETKECFRTFLSSPRHKEWLFASRASIHELLASHGDTEHMVYFAVIMQDYERVVAYHCQHEAYEEALAVLARHRDPQLFYKFSPILIRHIPRQLVDAWIEMGSRLDARQLIPALVNYSQGGEVQQVSQAIRYMEFCVNVLGETEQAIHNYLLSLYARGRPDSLLAYLEQAGASPHRVHYDLKYALRLCAEHGHHRACVHVYKVLELYEEAVDLALQVDVDLAKQCADLPEEDEELRKKLWLKIARHVVQEEEDVQTAMACLASCPLLKIEDVLPFFPDFVTIDHFKEAICSSLKAYNHHIQELQREMEEATASAQRIRRDLQELRGRYGTVEPQDKCATCDFPLLNRPFYLFLCGHMFHADCLLQAVRPGLPAYKQARLEELQRKLGAAPPPAKGSARAKEAEGGAATAGPSREQLKADLDELVAAECVYCGELMIRSIDRPFIDPQRYEEEQLSWL", "values": [
      {"measurement": "relative amount bound with Tgfbrap1-HA overexpressed (control cells HEK + pCMV as reference)", "setting": "VPS39-FLAG", "result": "0.63 relative to control cells"},
      {"measurement": "relative amount bound with Vps41-HA overexpressed (control cells HEK + pCMV as reference)", "setting": "VPS8-FLAG", "result": "1.21 relative to control cells"}
    ]},
    {"binder": "VPS11 (natural protein, human (endogenous in HEK293), UniProt Q9H270 1-941, looked up, VPS11, shared class C core subunit of HOPS and CORVET, detected by anti-VPS11 western blot in anti-FLAG precipitates; also called core subunit VPS11; source: endogenous, HEK293 lysate) MAAYLQWRRFVFFDKELVKEPLSNDGAAPGATPASGSAASKFLCLPPGITVCDSGRGSLVFGDMEGQIWFLPRSLQLTGFQAYKLRVTHLYQLKQHNILASVGEDEEGINPLVKIWNLEKRDGGNPLCTRIFPAIPGTEPTVVSCLTVHENLNFMAIGFTDGSVTLNKGDITRDRHSKTQILHKGNYPVTGLAFRQAGKTTHLFVVTTENVQSYIVSGKDYPRVELDTHGCGLRCSALSDPSQDLQFIVAGDECVYLYQPDERGPCFAFEGHKLIAHWFRGYLIIVSRDRKVSPKSEFTSRDSQSSDKQILNIYDLCNKFIAYSTVFEDVVDVLAEWGSLYVLTRDGRVHALQEKDTQTKLEMLFKKNLFEMAINLAKSQHLDSDGLAQIFMQYGDHLYSKGNHDGAVQQYIRTIGKLEPSYVIRKFLDAQRIHNLTAYLQTLHRQSLANADHTTLLLNCYTKLKDSSKLEEFIKKKSESEVHFDVETAIKVLRQAGYYSHALYLAENHAHHEWYLKIQLEDIKNYQEALRYIGKLPFEQAESNMKRYGKILMHHIPEQTTQLLKGLCTDYRPSLEGRSDREAPGCRANSEEFIPIFANNPRELKAFLEHMSEVQPDSPQGIYDTLLELRLQNWAHEKDPQVKEKLHAEAISLLKSGRFCDVFDKALVLCQMHDFQDGVLYLYEQGKLFQQIMHYHMQHEQYRQVISVCERHGEQDPSLWEQALSYFARKEEDCKEYVAAVLKHIENKNLMPPLLVVQTLAHNSTATLSVIRDYLVQKLQKQSQQIAQDELRVRRYREETTRIRQEIQELKASPKIFQKTKCSICNSALELPSVHFLCGHSFHQHCFESYSESDADCPTCLPENRKVMDMIRAQEQKRDLHDQFQHQLKCSNDSFSVIADYFGRGVFNKLTLLTDPPTARLTSSLEAGLQRDLLMHSRRGT", "values": [
      {"measurement": "relative amount bound with Tgfbrap1-HA overexpressed (control cells HEK + pCMV as reference)", "setting": "VPS39-FLAG", "result": "0.66 relative to control cells"},
      {"measurement": "relative amount bound with Vps41-HA overexpressed (control cells HEK + pCMV as reference)", "setting": "VPS8-FLAG", "result": "1.52 relative to control cells"}
    ]}
  ]
}
